Drawing on patent US20200283773, “NUCLEOLIN-TARGETING APTAMERS AND METHODS OF USING THE SAME” (Duke University, published 2020), this text covers binding result and Kd for 14 molecules.

Broadly, the Kd is the equilibrium constant for the complex coming apart.

Common to all, as to conditions: label: 32P end label
The target in data set [1] is T1, nucleolin (NCL), recombinant (Homo sapiens, UniProt P19338 SEQ:1-710). In words: filter; among truncates with best affinity; values only in figure.
In data set [2] the target is T1, nucleolin (NCL), recombinant. Kind of data set: filter; 20 mM Hepes, 150 mM NaCl, 2 mM CaCl2, 0.01% BSA, 37 C; Bmax 33.6%, R2 0.6520. On the procedure: (§1) Aptamers were end-labeled with ³²P. Nucleolin protein was serially diluted in 20 mM Hepes, 150 mM NaCl, 2 mM CaCl₂ and 0.01% bovine serum albumin and incubated with a trace amount of the ³²P-labeled RNA pools. After incubation at 37° C., unbound RNA was captured on a nylon membrane and RNA-nucleolin complexes captured on a nitrocellulose membrane. The fraction of protein-bound RNA was determined via phosphorimaging of the nitrocellulose and nylon membranes.

Data set [3] has the same target. In words: filter; 20 mM Hepes, 150 mM NaCl, 2 mM CaCl2, 0.01% BSA, 37 C; Bmax 32.76%. The protocol: as §1
The target is the same in data set [4]. In words: filter; similar affinity to parent Ev3.
For data set [5] the target is unchanged. In words: filter; 20 mM Hepes, 150 mM NaCl, 2 mM CaCl2, 0.01% BSA, 37 C; Bmax 25.2%. On the procedure: as §1
For data set [6] the target is unchanged. In words: filter; 20 mM Hepes, 150 mM NaCl, 2 mM CaCl2, 0.01% BSA, 37 C; Bmax 53.6%. On the procedure:
as §1

The target is the same in data set [7]. In words: filter; 20 mM Hepes, 150 mM NaCl, 2 mM CaCl2, 0.01% BSA, 37 C; Bmax 23.08%. The protocol:
as §1

Data set [8] has the same target. Kind of data set: filter; Ev2 described as non-binding aptamer control.

T1 sequence (P19338 whole entry, the tested form may be a part): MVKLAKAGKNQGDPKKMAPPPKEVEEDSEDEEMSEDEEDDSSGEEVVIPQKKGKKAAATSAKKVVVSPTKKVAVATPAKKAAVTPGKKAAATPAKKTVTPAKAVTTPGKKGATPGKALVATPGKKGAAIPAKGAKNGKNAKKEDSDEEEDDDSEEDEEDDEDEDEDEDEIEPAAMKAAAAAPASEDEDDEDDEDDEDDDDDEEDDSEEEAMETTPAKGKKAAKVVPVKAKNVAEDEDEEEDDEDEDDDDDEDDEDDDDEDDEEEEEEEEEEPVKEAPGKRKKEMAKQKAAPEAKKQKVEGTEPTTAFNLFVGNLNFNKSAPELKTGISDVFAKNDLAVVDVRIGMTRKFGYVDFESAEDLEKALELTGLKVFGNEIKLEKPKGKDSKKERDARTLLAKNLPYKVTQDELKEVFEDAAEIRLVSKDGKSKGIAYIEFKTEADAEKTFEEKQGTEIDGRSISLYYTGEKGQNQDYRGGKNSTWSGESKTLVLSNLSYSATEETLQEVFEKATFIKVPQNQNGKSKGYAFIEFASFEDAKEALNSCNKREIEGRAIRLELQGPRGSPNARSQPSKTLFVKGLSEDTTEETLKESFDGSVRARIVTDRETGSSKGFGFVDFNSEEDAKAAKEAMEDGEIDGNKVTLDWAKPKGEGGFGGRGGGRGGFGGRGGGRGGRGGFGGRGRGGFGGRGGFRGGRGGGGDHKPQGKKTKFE

B1: Bv1 (ssRNA)
RNA: GGAAGAGGGAUGGGUGCCAGCUUUGCAUACCACGUGCAAUUCACUCCACCCGUCAC
modifications: 2'-F pyrimidines
Consider B1, for which the binding result in data set [1] is reported as “binds”.

B2: Fv3 (ssRNA)
RNA: GGGAGAGAGGAAGAGGGAUGGGACCACGCGCCAACGUGUCAGCUACACGCCGUGUUCCCCGG
modifications: 2'-F pyrimidines
As for B2, in data set [1], the binding result was “binds”.

B3: FAM-F (ssRNA)
RNA: GGGAGAGAGGAAGAGGGAUGGGACCACGCGCCAACGUGUCAGCUACACGCCGUGUUCCCCGGCAUAACCCAGAGGUCGAUAGUACUGGAUCCCCCC
modifications: 2'-F pyrimidines
Consider B3, for which, in data set [2], the Kd was 0.37 nM.

B4: FAM-C (ssRNA)
RNA: GGGAGAGAGGAAGAGGGAUGGGAAGAUCUGCUAAGUGCACGCACAAUCACCAUCGAGCGUCUCAUAACCCAGAGGUCGAUAGUACUGGAUCCCCCC
modifications: 2'-F pyrimidines
With B4, the Kd in data set [3] came to 0.428 nM.

B5: Ev3.min22 (ssRNA)
RNA: GGGAGGAAGAGGGAUGGGCACGGUCCAGCGCUAACUGUACCUGCUGUGCCACCC
modifications: 2'-F pyrimidines
In the case of B5, the binding result in data set [4] was “binds”.

B6: FAM-B (ssRNA)
RNA: GGGAGAGAGGAAGAGGGAUGGGAGCCAGCUUUGCAUACCACGUGCAAUUCACUCCACCCGUCACAUAACCCAGAGGUCGAUAGUACUGGAUCCCCCC
modifications: 2'-F pyrimidines
Turning to B6, the Kd in data set [5] is 0.851 nM.

B7: Ev3 (ssRNA)
RNA: GGGAGAGAGGAAGAGGGAUGGGCACGGUCCAGCGCUAACUGUACCUGCUGUGCCACCCACCG
modifications: 2'-F pyrimidines
For B7, the binding result in data set [1] (DL650 for flow) is “binds”.

B8: Dv2 (ssRNA)
RNA: GGGAGAGAGGAAGAGGGAUGGGCACAUGGUACGCCCAAAGCGAGGCCCGCUGCGUAGUGCC
modifications: 2'-F pyrimidines
Consider B8, for which the binding result in data set [1] was “binds”. In the case of GGGAUGGGCACGGUCCAGCGCUAACUGUACCUGCUGUGCCACCC (ssRNA, 2'-F pyrimidines) [Ev3.min21], in data set [4], the binding result is “binds”.

B9: FAM-D (ssRNA)
RNA: GGGAGAGAGGAAGAGGGAUGGGCACAUGGUACGCCCAAAGCGAGGCCCGCUGCGUAGUGCCAUAACCCAGAGGUCGAUAGUACUGGAUCCCCCC
modifications: 2'-F pyrimidines
B9: the Kd in data set [6] was determined as 0.586 nM.

B10: Ev5 (ssRNA)
RNA: GGAAGAGGGAUGGGCACGGUCCAGCGCUAACUGUACCUGCUGUGCCACCCACC
modifications: 2'-F pyrimidines
Turning to B10, the binding result in data set [1] (DL650 for flow) is reported as “binds”.

B11: FAM-E (ssRNA)
RNA: GGGAGAGAGGAAGAGGGAUGGGCACGGUCCAGCGCUAACUGUACCUGCUGUGCCACCCACCGCAUAACCCAGAGGUCGAUAGUACUGGAUCCCCCC
modifications: 2'-F pyrimidines
In the case of B11, the Kd in data set [7] is 1.69 nM.

B12: Ev3.min24 (ssRNA)
RNA: GGGAGGAAGAGGGAUGGGCACGGUCCAGCGCACUGUACCUGCUGUGCCACCC
modifications: 2'-F pyrimidines
Take B12: the binding result in data set [4] is listed as “binds”.

For GGGAUGGGCACGGUCCAGCGCUAACUGUACCUGCUGUGCCACCCACCGC (ssRNA, 2'-F pyrimidines) [Ev2], the binding result in data set [8] was “no binding”.
